Results published in patent US20130095492A1.

How the values were obtained:
[1] = molecular target: full-length recombinant tau (human) (UniProt P10636); test: sandwich immuno-PCR, Tau1 capture on plate, HT7-DNA conjugate detection, recombinant tau at 16 pg/ml in synthetic serum
[2] = molecular target: full-length recombinant tau (human) (UniProt P10636); test: sandwich immuno-PCR, Tau1 capture on plate, HT7-DNA conjugate detection, recombinant tau at 80 pg/ml in synthetic serum
[3] = molecular target: full-length recombinant tau (human) (UniProt P10636); test: sandwich immuno-PCR, Tau1 capture on plate, HT7-DNA conjugate detection, recombinant tau at 3.2 pg/ml in synthetic serum
[4] = molecular target: full-length recombinant tau (human) (UniProt P10636); test: sandwich immuno-PCR, Tau1 capture on plate, HT7-DNA conjugate detection, recombinant tau at 400 pg/ml in synthetic serum
[5] = molecular target: full-length recombinant tau (human) (UniProt P10636); test: sandwich immuno-PCR, Tau1 capture on plate, HT7-DNA conjugate detection, recombinant tau at 0.64 pg/ml in synthetic serum
[6] = molecular target: full-length recombinant tau (human) (UniProt P10636); test: sandwich immuno-PCR, Tau1 capture on plate, HT7-DNA conjugate detection, recombinant tau at 2000 pg/ml in synthetic serum
[7] = molecular target: full-length recombinant tau (human) (UniProt P10636); test: sandwich immuno-PCR, Tau1 capture on plate, HT7-DNA conjugate detection, recombinant tau at 10000 pg/ml in synthetic serum

UniProt P10636, sequence (P10636 other isoform, or with tags, fused parts or gaps): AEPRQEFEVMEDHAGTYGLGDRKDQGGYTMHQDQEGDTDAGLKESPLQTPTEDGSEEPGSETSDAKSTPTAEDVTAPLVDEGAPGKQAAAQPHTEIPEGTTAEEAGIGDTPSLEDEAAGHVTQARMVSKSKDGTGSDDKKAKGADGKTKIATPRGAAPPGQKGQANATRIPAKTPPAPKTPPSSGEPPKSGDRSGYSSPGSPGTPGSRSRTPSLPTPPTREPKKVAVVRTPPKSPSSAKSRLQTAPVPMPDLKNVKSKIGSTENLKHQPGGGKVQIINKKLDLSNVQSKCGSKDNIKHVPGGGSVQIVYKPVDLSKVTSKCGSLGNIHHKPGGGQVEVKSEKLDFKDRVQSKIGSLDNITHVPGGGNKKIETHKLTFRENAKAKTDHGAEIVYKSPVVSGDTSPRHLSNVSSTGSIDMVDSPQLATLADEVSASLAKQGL

delta counts [1]: 21.7 delta counts
delta counts [2]: 23.6 delta counts
delta counts [3]: 20.6 delta counts
delta counts [4]: 26.3 delta counts
delta counts [5]: 20.3 delta counts
delta counts [6]: 29 delta counts
delta counts [7]: 31.7 delta counts
Substance: Tau1 (antibody)
